The supplement of paper PMC11865577

Tests used:
Assay in all cases: pull-down binding Z-score (relative to library population); higher = stronger binding
[1] = test system: TO-3-N3 (biotin conjugate); conditions: RNA library: Library-2
Procedure, shortened: (§1)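 Heat-folded RNA library (1 μg, Cy5 or Cy3 end label, phosphate/NaCl/KCl buffer) was captured for 60 min at 25 °C on streptavidin beads displaying 100 pmol of biotin-conjugated small molecule, then washed three times. The bound fraction, eluted in hot SDS, was hybridised to a DNA barcode microarray at 55.5 °C for 20 h. Z-scores for binding were taken against the library mean and standard deviation after beads-only subtraction and trimmed averaging of replicate barcoded probes.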

[2] = test system: TO-N3-2 (biotin conjugate); conditions: RNA library: Library-2
Procedure, shortened: as §1

[3] = test system: G-clamp-N3 (biotin conjugate); conditions: RNA library: Library-1 (pre-miRNA loops + repeats)
Procedure, shortened: as §1

[4] = test system: TO-3-N3-2 (biotin conjugate); conditions: RNA library: Library-2
Procedure, shortened: as §1

[5] = test system: TO-N3 (biotin conjugate); conditions: RNA library: Library-2
Procedure, shortened: as §1

Sequence | pull-down binding Z-score [1] | pull-down binding Z-score [2] | pull-down binding Z-score [3] | pull-down binding Z-score [4] | pull-down binding Z-score [5]
GCAUGGGGCUAGGAGGCCCCGCGC [hsa-mir-6825] | 0.451 | 0.142 | -0.292 | 0.00553 | 0.391
UUACUCACCCUCUCAAAACCGAGACUCAGAGACGUUGGGUAA [hsa-mir-7973-2] | -0.25 | 0.271 | -1.63 | 0.138 | -0.0759
GAAGCACUGGUUAUGAUUUGCAUC [hsa-mir-3126] | -0.087 | 0.429 | -0.739 | 0.159 | 0.0904
GGGGCCUGUGGUCCC [hsa-mir-1268a] | -0.0124 | -0.675 | 0.885 | -0.144 | -0.282
UAAGUGUUAUAGCACUUA [hsa-mir-374a] | -0.901 | -1.79 | -0.753 | -0.541 | -1.38
UUUUGUCUGA [hsa-mir-553] | -0.414 | -0.491 | -1.4 | -0.242 | -0.549
UGUCUUGUGUCUGUAAGUAU [hsa-mir-1275] | -0.619 | -0.00915 | -0.561 | -0.189 | -0.413
CGGAGCCUCGCAGGGUCGGGCUCGGGCUCCCUAACCGUCUCCGCUUCUUC [hsa-mir-6084] | 0.896 | 1.77 | -0.288 | 0.558 | 1.36
CCCACGGCCCUUGUCAGUGUG [hsa-mir-3190] | 0.791 | 0.517 | -1.69 | -0.14 | 0.809
GUAUGAGUGUAUUGGUCUUCAUAA [hsa-mir-9-2] | -0.226 | 0.481 | -0.373 | 0.203 | 0.0907
UGAGCAUUCUAGCAGCAGUUUGAUGAUCA [hsa-mir-6516] | -0.57 | -0.196 | -0.0961 | -0.419 | -0.394
AUUUCUGUGUUCGUUAGGCAACAG [hsa-mir-221] | 0.785 | 0.324 | 0.12 | 0.283 | 1.07
UUUACUUUUGGCCUCAAGUCAUUGCAGUAAA [hsa-mir-4796] | -0.696 | -1.18 | -0.453 | -0.635 | -0.832
GGGACACAUUUGAGCCAAAUGUCCC [hsa-mir-610] | -0.35 | -0.132 | -0.286 | -0.331 | -0.525
UUGGUGACAGCAGCAGUAGAGUUGCCAG [hsa-mir-6501] | -0.632 | 0.272 | 0.0434 | -0.445 | -0.35
UCCAGCUGUGUGAUAUUCUGCUG [hsa-mir-19b-1] | 0.907 | 0.384 | -0.727 | 0.159 | 0.909
UCUGUUUGUUUUCUCUUAAACA [hsa-mir-519d] | -0.418 | -0.847 | -0.0316 | -0.553 | -0.828
GCUGUGUUGAAUGAUUGGUGAGUUUGUUUGCUCAUUGAUUGAAUCACUGC [hsa-mir-3678] | -0.734 | -0.307 | 0.133 | 0.121 | -0.79
CUGUGGUGGCUGCUUAUGCACCACGG [hsa-mir-105-2] | 0.62 | -0.626 | 1.15 | -0.102 | 0.363

Sequence | pull-down binding Z-score [1] | pull-down binding Z-score [2] | pull-down binding Z-score [3] | pull-down binding Z-score [4] | pull-down binding Z-score [5]
AGUUAGAAUUCUUAAGUAUCAAAACUAAAU [hsa-mir-4760] | 0.216 | -0.12 | -1.22 | 0.252 | 0.106
GGUUCUUCCCGAAGC [hsa-mir-4710] | -0.0117 | -0.359 | 0.205 | -0.22 | 0.0409
CAGCACUGAGCAGGCAGUGUUGU [hsa-mir-4288] | -0.241 | 0.42 | -0.48 | -0.325 | -0.149
CCACGGGCUGGGCACAGUGG [hsa-mir-3159] | 1.04 | 0.891 | 1.07 | 0.391 | 1.18
CGCCAGCUCGCUGACAGCACGACUCAGGGCG [hsa-mir-658] | -0.127 | 1.15 | 0.902 | 0.383 | 0.25
GUCCCAAUACAUGUGGGCC [hsa-mir-586] | -0.000511 | -0.294 | -0.0916 | -0.158 | -0.22
GAAACAUCUUUUAC [hsa-mir-4514] | -0.428 | -0.469 | -0.862 | -0.191 | -0.551
GUGAACAUUGCAU [hsa-mir-4301] | -0.353 | -0.237 | -0.223 | -0.219 | -0.356
AUAUUGACACUAUAACAAUAAUGUCAAUAU [hsa-mir-4795] | -0.438 | -1.79 | 0.669 | -0.44 | -0.874
UUCUGUGGUUUGAAAGGAA [hsa-mir-1323] | 0.85 | -0.252 | 1.07 | 0.281 | 0.444
GGAAGGGAGCCCCAUUUACAGUGGUAACUUCCUUUCC [hsa-mir-5006] | 1.35 | 0.181 | -0.388 | 0.679 | 1.3
GCGUCACGUGCACCCAAGUGACGC [hsa-mir-6786] | 0.576 | 0.796 | -0.196 | 0.171 | 0.688
UGCCUUGUAGCAUUCAGGUCAAGCA [hsa-mir-103a-2] | -0.594 | 0.0485 | 0.0735 | -0.378 | -0.524
UGUGUUCAGUGGAACCAAGGUAAACACA [hsa-mir-624] | 1.29 | 1.22 | 1.58 | 0.95 | 1.56
GUGAUAGGAUUUAUCAC [hsa-mir-4999] | -0.154 | -0.819 | -0.554 | -0.295 | -0.436
CGUUGAGUGGGCACCCGAGAAGCCAUCG [hsa-mir-425] | 0.0191 | 1.51 | -0.628 | 0.25 | 0.583
UUGUGGCAAUACAG [hsa-mir-8068] | -0.437 | -0.0186 | 0.635 | -0.166 | -0.425
GAGAUGUGAUCCUGCCACAUCUC [hsa-mir-1304] | -0.09 | -0.363 | 0.421 | -0.00394 | -0.261
GUUGGGCAUCCACAGUCUCCCACC [hsa-mir-1911] | -0.0617 | 0.612 | -1.43 | -0.322 | 0.206
